Substitutions are numbered along the chain they refer to. Names may count otherwise.

B1: C5A (XPA23) VL Q27D (antibody, V domains shown)
VH: EVQLLESGGGLVQPGGSLRLSCAASGFTFSKYFMFWVRQAPGKGLEWVSVISPSGGMTRYADSVKGRFTISRDNSKNTLYLQMNSLRAEDTAVYYCARVGYGGNSDYWGQGTLVTVSS
VL: DIQMTQSPSSVSASVGDRLTIICRASDDINRWLAWYQQTPGNAPKLLIHSATSLQSGVPSRFSGSGSGTDFTLTINSLQPEDFATYYCQQADSFPLTFGGGTKVEIK
B2: C5A (XPA23) VL S50K (antibody, V domains shown)
VH: B1 VH
VL: B1 VL with D27Q, S50K
B3: C5A (XPA23) VL H49Y (antibody, V domains shown)
VH: B1 VH
VL: B1 VL with D27Q, H49Y
B4: C5A (XPA23) VL R31K (antibody, V domains shown)
VH: B1 VH
VL: B1 VL with D27Q, R31K
B5: C5A (XPA23) VL N30R (antibody, V domains shown)
VH: B1 VH
VL: B1 VL with D27Q, N30R
B6: C5A (XPA23) VL Q27H (antibody, V domains shown)
VH: B1 VH
VL: B1 VL with D27H
B7: C5A (XPA23) VL S50E (antibody, V domains shown)
VH: B1 VH
VL: B1 VL with D27Q, S50E
B8: C5A (XPA23) VL D28H (antibody, V domains shown)
VH: B1 VH
VL: B1 VL with D27Q, D28H
B9: C5A (XPA23) VL S50H (antibody, V domains shown)
VH: B1 VH
VL: B1 VL with D27Q, S50H
B10: C5A (XPA23) VL N30Q (antibody, V domains shown)
VH: B1 VH
VL: B1 VL with D27Q, N30Q
B11: C5A (XPA23) VL R31N (antibody, V domains shown)
VH: B1 VH
VL: B1 VL with D27Q, R31N
B12: C5A (XPA23) VL D28Y (antibody, V domains shown)
VH: B1 VH
VL: B1 VL with D27Q, D28Y
B13: C5A (XPA23) VL A51D (antibody, V domains shown)
VH: B1 VH
VL: B1 VL with D27Q, A51D
B14: C5A (XPA23) VL N30S (antibody, V domains shown)
VH: B1 VH
VL: B1 VL with D27Q, N30S
B15: C5A (XPA23) VL R31T (antibody, V domains shown)
VH: B1 VH
VL: B1 VL with D27Q, R31T
B16: C5A (XPA23) VL S50N (antibody, V domains shown)
VH: B1 VH
VL: B1 VL with D27Q, S50N
B17: C5A (XPA23) VL D28E (antibody, V domains shown)
VH: B1 VH
VL: B1 VL with D27Q, D28E
B18: C5A (XPA23) VL R31Q (antibody, V domains shown)
VH: B1 VH
VL: B1 VL with D27Q, R31Q
B19: C5A (XPA23) VL N30H (antibody, V domains shown)
VH: B1 VH
VL: B1 VL with D27Q, N30H
B20: C5A (XPA23) VL D28R (antibody, V domains shown)
VH: B1 VH
VL: B1 VL with D27Q, D28R
B21: C5A (XPA23) VL D28T (antibody, V domains shown)
VH: B1 VH
VL: B1 VL with D27Q, D28T
B22: C5A (XPA23) VL D28K (antibody, V domains shown)
VH: B1 VH
VL: B1 VL with D27Q, D28K
B23: C5A (XPA23) VL S50Y (antibody, V domains shown)
VH: B1 VH
VL: B1 VL with D27Q, S50Y
B24: C5A (XPA23) VL Q27S (antibody, V domains shown)
VH: B1 VH
VL: B1 VL with D27S
B25: C5A (XPA23) VL H49R (antibody, V domains shown)
VH: B1 VH
VL: B1 VL with D27Q, H49R
B26: C5A (XPA23) VL H49N (antibody, V domains shown)
VH: B1 VH
VL: B1 VL with D27Q, H49N
B27: C5A (XPA23) VL R31D (antibody, V domains shown)
VH: B1 VH
VL: B1 VL with D27Q, R31D
B28: C5A (XPA23) VL N30D (antibody, V domains shown)
VH: B1 VH
VL: B1 VL with D27Q, N30D
B29: C5A (XPA23) VL H49D (antibody, V domains shown)
VH: B1 VH
VL: B1 VL with D27Q, H49D
B30: C5A (XPA23) VL D28S (antibody, V domains shown)
VH: B1 VH
VL: B1 VL with D27Q, D28S
B31: C5A (XPA23) VL Q27E (antibody, V domains shown)
VH: B1 VH
VL: B1 VL with D27E
B32: C5A (XPA23) VL N30E (antibody, V domains shown)
VH: B1 VH
VL: B1 VL with D27Q, N30E
B33: C5A (XPA23) VL N30Y (antibody, V domains shown)
VH: B1 VH
VL: B1 VL with D27Q, N30Y
B34: C5A (XPA23) VL D28N (antibody, V domains shown)
VH: B1 VH
VL: B1 VL with D27Q, D28N
B35: C5A (XPA23) VL H49K (antibody, V domains shown)
VH: B1 VH
VL: B1 VL with D27Q, H49K
B36: C5A (XPA23) VL Q27R (antibody, V domains shown)
VH: B1 VH
VL: B1 VL with D27R
B37: C5A (XPA23) VL N30K (antibody, V domains shown)
VH: B1 VH
VL: B1 VL with D27Q, N30K
B38: C5A (XPA23) VL S50Q (antibody, V domains shown)
VH: B1 VH
VL: B1 VL with D27Q, S50Q
B39: C5A (XPA23) VL N30T (antibody, V domains shown)
VH: B1 VH
VL: B1 VL with D27Q, N30T
B40: C5A (XPA23) VL Q27T (antibody, V domains shown)
VH: B1 VH
VL: B1 VL with D27T
B41: C5A (XPA23) VL S50T (antibody, V domains shown)
VH: B1 VH
VL: B1 VL with D27Q, S50T
B42: C5A (XPA23) VL R31S (antibody, V domains shown)
VH: B1 VH
VL: B1 VL with D27Q, R31S
B43: C5A (XPA23) VL H49S (antibody, V domains shown)
VH: B1 VH
VL: B1 VL with D27Q, H49S

This assay has as its target binding partner of C5A (XPA23). The assay can be described thus: Biacore K-off.
As for B1, the fold difference in affinity vs original was found to be 1.07 fold.

As to B2, the fold difference in affinity vs original worked out at 0.1 fold. As for B3, the figure is 0.52 fold; as for B4, 1.18 fold; as for B5, 0.74 fold. As for B6, the figure is 1.09 fold; as for B7, 0.02 fold.

As to B8, the fold difference in affinity vs original was 1.23 fold. As for B9, the figure is 0.05 fold. As for B10, the figure is 0.6 fold.

With B11, the fold difference in affinity vs original amounted to 0.38 fold. In the case of B12, the fold difference in affinity vs original worked out at 1.45 fold.

Take B13: the fold difference in affinity vs original turned out to be 0.13 fold. With B14, the fold difference in affinity vs original stood at 0.72 fold.

In the case of B15, the fold difference in affinity vs original is 0.24 fold.

Take B16: the fold difference in affinity vs original amounted to 0.25 fold.

For B17, the fold difference in affinity vs original stood at 0.74 fold. For B18, the fold difference in affinity vs original was 0.27 fold.

In the case of B19, the fold difference in affinity vs original was 1 fold. As for B20, the figure is 0.94 fold; as for B21, 1.19 fold; as for B22, 0.82 fold. On to B23, for which the fold difference in affinity vs original stood at 0.05 fold. As for B24, the figure is 3.3 fold. As for B25, the figure is 0.21 fold; as for B26, 0.31 fold; as for B27, 11.1 fold.

For the molecule B28, the fold difference in affinity vs original amounted to 0.81 fold. As for B29, the figure is 0.11 fold; as for B30, 5.25 fold. As for B31, the figure is 1.08 fold. As for B32, the figure is 0.64 fold; as for B33, 1.4 fold. As to B34, the fold difference in affinity vs original was determined as 1 fold. As to B35, the fold difference in affinity vs original was found to be 0.1 fold. As for B36, the figure is 0.89 fold; as for B37, 0.61 fold. For B38, the fold difference in affinity vs original was found to be 0.21 fold. As for B39, the figure is 0.97 fold. For the molecule B40, the fold difference in affinity vs original came out at 0.64 fold. As for B41, the figure is 0.87 fold; as for B42, 0.44 fold; as for B43, 0.14 fold.

Values taken from patent US20110118447A1.
